From the RNAGym collection of RNA variant scans (doi:10.7554/elife.80360)

B1: HDV Ribozyme (parent)
chain: GGCCGGCAUGGUCCCAGCCUCCUCGCUGGCGCCGGCUGGGCAACAUUCCGAGGGGACCGUCCCCUCGGUAAUGGCGAAUGGGACCCA

Variants of: B1
Experiment: self-cleavage, relative activity (ratio to wild type); higher = more cleavage; co-transcriptional
In the case of GGCCGGCAUGGUCCCAGCCUCCUCGCUGGCGCCGCCUGGGCAACAUUCUGAGGGGACCGUCCCCUCGGUAAUGGCGAAUGGGACCCA [G35C C49U], the self-cleavage is reported as 0.203. Work on GGCCGGCAUGGUCCCAGCCUCCUCGCUGGCGCCGCCUGGGCAACAUUCGGAGGGGACCGUCCCCUCGGUAAUGGCGAAUGGGACCCA [G35C C49G] yielded a self-cleavage of 0.0449. Work on GGCCGGCAUGGUCCCAGCCUCCUCGCUGGCGCCGCCUGGGCUACAUUCCGAGGGGACCGUCCCCUCGGUAAUGGCGAAUGGGACCCA [G35C A42U] yielded a self-cleavage of 0.0339. With GGCCGGCAUGGUCCCAGCCUCCUCGCUGGCGCCGCCUGGGCACCAUUCCGAGGGGACCGUCCCCUCGGUAAUGGCGAAUGGGACCCA [G35C A43C] the self-cleavage was 0.17. With GGCCGGCAUGGUCCCAGCCUCCUCGCUGGCGCCGCCUGGGCAGCAUUCCGAGGGGACCGUCCCCUCGGUAAUGGCGAAUGGGACCCA [G35C A43G] the self-cleavage was 0.111. With GGCCGGCAUGGUCCCAGCCUCCUCGCUGGCGCCGACUGGGCAACAUUCCGAGGGGACCGUCCCCUCGGCAAUGGCGAAUGGGACCCA [G35A U69C] the self-cleavage was 0.591. GGCCGGCAUGGUCCCAGCCUCCUCGCUGGCGCCGACUGGGCAACAUUCCGAGGGGACCGUCCCCUCGGGAAUGGCGAAUGGGACCCA [G35A U69G] showed a self-cleavage of 0.541. In the case of GGCCGGCAUGGUCCCAGCCUCCUCGCUGGCGCCGCCUGGGCAACAUUCCGAGGGGACCGUCCCCUCGGUAAUGGCGAAUGGGUCCCA [G35C A83U], the self-cleavage is reported as 0.0898. With GGCCGGCAUGGUCCCAGCCUCCUCGCUGGCGCCGCCUGGGCAACAUUCCGAGGGGACCGUCCCCUCGGUAAUGGCGAUUGGGACCCA [G35C A78U] the self-cleavage was 0.0475. GGCCGGCAUGGUCCCAGCCUCCUCGCUGGCGCCGCCUGGGCAACAUUCCGAGGGGACCGUCCCCUCGGUAAUGGCGAGUGGGACCCA [G35C A78G] showed a self-cleavage of 0.262. GGCCGGCAUGGUCCCAGCCUCCUCGCUGGCGCCGCCUGGGCAAAAUUCCGAGGGGACCGUCCCCUCGGUAAUGGCGAAUGGGACCCA [G35C C44A] showed a self-cleavage of 0.0573. With GGCCGGCAUGGUCCCAGCCUCCUCGCUGGCGCCGCCUGGGCAAUAUUCCGAGGGGACCGUCCCCUCGGUAAUGGCGAAUGGGACCCA [G35C C44U] the self-cleavage was 0.0536. Work on GGCCGGCAUGGUCCCAGCCUCCUCGCUGGCGCCGCCUGGGCAACAUUCCGAGGGGACCGUCCCCUCGGUAAUGGCGUAUGGGACCCA [G35C A77U] yielded a self-cleavage of 0.181. GGCCGGCAUGGUCCCAGCCUCCUCGCUGGCGCCGCCUGGGCAACAUUCCGAGGGGACCGUCCCCUCGGUAAUGGCGGAUGGGACCCA [G35C A77G] gave a self-cleavage of 0.18. GGCCGGCAUGGUCCCAGCCUCCUCGCUGGCGCCGCCUGGGCAACAUUCCGAGGGGACCGUCCCCUCGGUAAUGGCGCAUGGGACCCA [G35C A77C] showed a self-cleavage of 0.0898. In the case of GGCCGGCAUGGUCCCAGCCUCCUCGCUGGCGCCGACUGGGCAACAUUCCGAGGGGACCGUCCCCUCGGUAAAGGCGAAUGGGACCCA [G35A U72A], the self-cleavage is reported as 0.208. GGCCGGCAUGGUCCCAGCCUCCUCGCUGGCGCCGCCUGGGCAACAUUCCGAGGGGAUCGUCCCCUCGGUAAUGGCGAAUGGGACCCA [G35C C57U] gave a self-cleavage of 0.185. Variant GGCCGGCAUGGUCCCAGCCUCCUCGCUGGCGCCGCCUGGGCAACAUUCCGAGGGGACCGUCCCCUCGGUUAUGGCGAAUGGGACCCA [G35C A70U] has a self-cleavage of 0.138. For GGCCGGCAUGGUCCCAGCCUCCUCGCUGGCGCCGCCUGGGCAACAUUCCGAGGGGACCGUCCCCUCGGUCAUGGCGAAUGGGACCCA [G35C A70C], the self-cleavage was 0.158. For GGCCGGCAUGGUCCCAGCCUCCUCGCUGGCGCCGACUGGGCAACAUUCCGAGGGGACCGUCCCCCCGGUAAUGGCGAAUGGGACCCA [G35A U65C], the self-cleavage was 0.521. For GGCCGGCAUGGUCCCAGCCUCCUCGCUGGCGCCGCCUGGGCAACAUUCCGAGGGGACCGUCCCCUCGGUAAUGGCGAAUGGGACCCA [G35C], the self-cleavage was 0.254. GGCCGGCAUGGUCCCAGCCUCCUCGCUGGCGCCGCCUGGGCAACAUUCCGAGGGGACCGUCCCCUCGGUAAUGGCGAAUGGGACCCC [G35C A87C] showed a self-cleavage of 0.0866. For GGCCGGCAUGGUCCCAGCCUCCUCGCUGGCGCCGCCUGGGCAACAUUCCGAGGGGACCGUCCCCUCGGUAAUGGCGAAUGGGACCCG [G35C A87G], the self-cleavage was 0.205. With GGCCGGCAUGGUCCCAGCCUCCUCGCUGGCGCCGCUUGGGCAACAUUCCGAGGGGACCGUCCCCUCGGUAAUGGCGAAUGGGACCCA [G35C C36U] the self-cleavage was 0.108. In the case of GGCCGGCAUGGUCCCAGCCUCCUCGCUGGCGCCGCAUGGGCAACAUUCCGAGGGGACCGUCCCCUCGGUAAUGGCGAAUGGGACCCA [G35C C36A], the self-cleavage is reported as 0.119. In the case of GGCCGGCAUGGUCCCAGCCUCCUCGCUGGCGCCGCCUGGGUAACAUUCCGAGGGGACCGUCCCCUCGGUAAUGGCGAAUGGGACCCA [G35C C41U], the self-cleavage is reported as 0.0978. GGCCGGCAUGGUCCCAGCCUCCUCGCUGGCGCCGCCUGGGCAACAUUCCGAGGGGACCGUCCCCUCGGUACUGGCGAAUGGGACCCA [G35C A71C] showed a self-cleavage of 0. In the case of GGCCGGCAUGGUCCCAGCCUCCUCGCUGGCGCCGCCUGGGCAACAUUGCGAGGGGACCGUCCCCUCGGUAAUGGCGAAUGGGACCCA [G35C C48G], the self-cleavage is reported as 0.485. With GGCCGGCAUGGUCCCAGCCUCCUCGCUGGCGCCGCCUGGGCAACAUUUCGAGGGGACCGUCCCCUCGGUAAUGGCGAAUGGGACCCA [G35C C48U] the self-cleavage was 0.271. For GGCCGGCAUGGUCCCAGCCUCCUCGCUGGCGCCGACUGGGCAACAUUCCGAGGGGACCGUCCCCUCGGUAAUGGCGAAAGGGACCCA [G35A U79A], the self-cleavage was 0.47. GGCCGGCAUGGUCCCAGCCUCCUCGCUGGCGCCGCCUGGGCAACAUUCCGUGGGGACCGUCCCCUCGGUAAUGGCGAAUGGGACCCA [G35C A51U] showed a self-cleavage of 0.396. For GGCCGGCAUGGUCCCAGCCUCCUCGCUGGCGCCGCCUGGGCAACAUUCCGAGGGGACAGUCCCCUCGGUAAUGGCGAAUGGGACCCA [G35C C58A], the self-cleavage was 0.175.
